In patent US20170240629A1 (Hoffmann-La Roche, published 2017):
Like-named read-outs stand apart in the source and are kept apart here.

Key:
human PDGF-BB [1] = target: T1, human PDGF-BB (human, UniProt P01127 82-190); assay: SPR (BIAcore T200); PDGF-BB coupled on CM3 chip, Fab injected
T1 construct: also called huPDGF-BB

human PDGF-BB [2] = target: T1, human PDGF-BB; assay: SPR; Fab
human PDGF-BB [3] = target: T1, human PDGF-BB; assay: SPR; apparent KD* of the Fab
human PDGF-BB [4] = target: T1, human PDGF-BB; assay: cell-based or functional assay
human PDGF-BB [5] = target: T1, human PDGF-BB; assay: cell-based or functional assay; remark: listed apart in the source
human PDGF-BB [6] = target: T1, human PDGF-BB; assay: SPR (BIAcore T200); PDGF-BB coupled on CM3 chip, antibody injected (Example 52); design: t½: unit not given here
human IL-1beta [7] = target: T2, human IL-1beta (human, UniProt P01584 117-269); assay: SPR (BIAcore); antibody captured by anti-Fc, IL-1beta injected
cynomolgus IL-1beta [8] = target: T3, cynomolgus IL-1beta (cynomolgus, UniProt P79182 117-268); assay: as above
human IL-1beta [9] = target: T2, human IL-1beta; assay: as above; remark: listed apart in the source
Procedure: (§1) All experiments were performed at 25° C. using HBS-P (10 mM His, 140 mM NaCl, 0.05% Tween 20 pH 7.4) as running and dilution buffer. Anti-human or anti-mouse Fc antibodies were immobilized on a Series S CM5 Sensor Chip (GE Healthcare) using standard amine coupling chemistry. […] The dissociation phase was monitored for 600 sec by washing with running buffer. […] The surface was regenerated by injecting 3 M MgCl2 (for anti-human Fc antibody) or 10 mM Glycine pH 1.5 (for anti-mouse Fc antibody) for 60 sec at a flow rate of 5 μl/min. Bulk refractive index differences were corrected by subtracting the response obtained from a mock surface. Blank injections were subtracted (double referencing). The derived curves were fitted to a 1:1 Langmuir binding model using the BIAevaluation software.

cynomolgus IL-1beta [10] = target: T3, cynomolgus IL-1beta; assay: as above; remark: listed apart in the source
Procedure: as §1

human IL-1beta [11] = target: T2, human IL-1beta; assay: cell-based or functional assay
human IL-1beta [12] = target: T2, human IL-1beta; assay: cell-based or functional assay; remark: listed apart in the source
human IL-1beta [13] = target: T2, human IL-1beta; assay: cell-based or functional assay; remark: listed apart in the source
human IL-1beta [14] = target: T2, human IL-1beta; assay: SPR inhibition; 10 nM human IL-1beta pre-incubated with antibody, injected over immobilised human IL-1RI (competitor)
Procedure: All experiments were performed at 25° C. using HBS-P (10 mM His, 140 mM NaCl, 0.05% Tween 20 pH 7.4) as running and dilution buffer. Human IL-1RI was immobilized on a Series S CM5 Sensor Chip (GE Healthcare) using standard amine coupling chemistry. […] The surface was regenerated by injecting 10 mM NaOH for 60 sec at a flow rate of 5 μl/min. Bulk refractive index differences were corrected by subtracting the response obtained from a mock surface.

human IL-1beta [15] = target: T2, human IL-1beta; assay: cell-based or functional assay; remark: listed apart in the source
human IL-1beta [16] = target: T2, human IL-1beta; assay: cell-based or functional assay; remark: listed apart in the source
ANG2 = target: T4, ANG2 (UniProt O15123 68-496, limits assumed); assay: cell-based or functional assay
T4 sequence (looked up): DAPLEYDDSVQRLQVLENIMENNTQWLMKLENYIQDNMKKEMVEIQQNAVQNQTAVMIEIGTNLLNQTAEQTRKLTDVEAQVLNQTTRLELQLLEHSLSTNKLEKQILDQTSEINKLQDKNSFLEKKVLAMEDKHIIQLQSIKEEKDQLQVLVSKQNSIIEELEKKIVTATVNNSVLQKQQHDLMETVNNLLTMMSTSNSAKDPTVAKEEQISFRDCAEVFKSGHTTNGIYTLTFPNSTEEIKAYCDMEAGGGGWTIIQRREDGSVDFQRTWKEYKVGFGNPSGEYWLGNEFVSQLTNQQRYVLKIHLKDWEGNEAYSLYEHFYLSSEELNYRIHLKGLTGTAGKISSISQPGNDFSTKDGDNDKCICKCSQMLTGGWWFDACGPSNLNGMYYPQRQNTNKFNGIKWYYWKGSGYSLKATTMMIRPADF

[17] = target: T5, human ANG2-RBD-mouse Fc-region fusion (human, UniProt O15123 275-496, limits assumed); assay: SPR (BIAcore T200); ANG2-RBD-mouse Fc captured, antibody injected (Example 52)
T5 construct: domain: RBD; also called human ANG2-RBD-murine Fc-region fusion; not shown: mouse Fc-region
T5 sequence (looked up): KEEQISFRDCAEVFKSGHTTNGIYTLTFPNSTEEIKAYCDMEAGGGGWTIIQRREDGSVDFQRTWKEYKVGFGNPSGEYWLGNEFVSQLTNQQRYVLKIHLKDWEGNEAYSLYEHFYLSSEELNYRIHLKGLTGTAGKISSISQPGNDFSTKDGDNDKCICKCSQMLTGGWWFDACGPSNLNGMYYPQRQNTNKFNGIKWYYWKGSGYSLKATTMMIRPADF

T1 sequence (P01127 82-190 limits assumed): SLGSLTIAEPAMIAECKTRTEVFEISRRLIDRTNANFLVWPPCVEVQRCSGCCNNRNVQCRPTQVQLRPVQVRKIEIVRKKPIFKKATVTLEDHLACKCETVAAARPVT

B1: antibody 0107 (Fab, V domains shown)
VH: EVQLVESGGGLVQPGGSLRLSCAASGFTFSSYWMSWVRQAPEKGLEWVSTISDGGGLTYYADSVKGRFTISRDNAKNSLYLQMNSLRAEDTAVYYCAESGGYTDWLFGYWGQGTLVTVSS
VL: not shown
Kd (human PDGF-BB [1]): 2000 pM | koff (human PDGF-BB [1]): 0.000362 s⁻¹ | kon (human PDGF-BB [1]): 195000 M⁻¹ s⁻¹ | t½ (human PDGF-BB [1]): 31.9 min | T½ (human PDGF-BB [2]): 31.9 min | Kd (human PDGF-BB [3]): 2000 pM

B2: antibody 0085 FAB (Fab, V domains shown)
VH: B1 VH
VL: not shown
IC50 Migration-Inhibition human pericytes (human PDGF-BB [4]): 270 pM | IC50 Proliferation human pericytes (human PDGF-BB [5]): 12 pM

B3: antibody 0106 (Fab, V domains shown)
VH: B1 VH
VL: not shown
Kd (human PDGF-BB [1]): 2000 pM | koff (human PDGF-BB [1]): 0.000374 s⁻¹ | kon (human PDGF-BB [1]): 202000 M⁻¹ s⁻¹ | t½ (human PDGF-BB [1]): 30.9 min | T½ (human PDGF-BB [2]): 30.9 min | Kd (human PDGF-BB [6]): 1000 pM | koff (human PDGF-BB [6]): 0.000291 s⁻¹ | kon (human PDGF-BB [6]): 294000 M⁻¹ s⁻¹ | t½ (human PDGF-BB [6]): 40 | Kd (human PDGF-BB [3]): 2000 pM

B4: H34 + C52aS mutations (antibody, V domains shown)
VH: EVQLQQSGPELVKTGASVKISCKASGYSFTGYYMHWVKQSHGKSLEWIGYISSYNAFTTYNQRFRGKATFTVDTSSSTAYMQFNSLTSEDSAVYYCVRSDYYGTSLYWGQGTTLTVSS
VL: QIVLTQSPAIMSASLGEEITLTCSASSSVSYMHWSQQKSGSSPKLLIYSTSNLASGVPSRFSGSGSGTFYSLTISSVEAEDAADYYCHQWSNYYTFGGGTKLEIK
Kd (human IL-1beta [7]): 400 pM | koff (human IL-1beta [7]): 0.000645 s⁻¹ | kon (human IL-1beta [7]): 1.6e+06 M⁻¹ s⁻¹ | Kd (cynomolgus IL-1beta [8]): 510 pM | koff (cynomolgus IL-1beta [8]): 0.000728 s⁻¹ | kon (cynomolgus IL-1beta [8]): 1.43e+06 M⁻¹ s⁻¹ | Kd (human IL-1beta [9]): 400 pM | koff (human IL-1beta [9]): 0.000645 s⁻¹ | kon (human IL-1beta [9]): 1.6e+06 M⁻¹ s⁻¹ | Kd (cynomolgus IL-1beta [10]): 510 pM | koff (cynomolgus IL-1beta [10]): 0.000728 s⁻¹ | kon (cynomolgus IL-1beta [10]): 1.43e+06 M⁻¹ s⁻¹

B5: Canakinumab (antibody, V domains shown)
VH: QVQLVESGGGVVQPGRSLRLSCAASGFTFSVYGMNWVRQAPGKGLEWVAIIWYDGDNQYYADSVKGRFTISRDNSKNTLYLQMNGLRAEDTAVYYCARDLRTGPFDYWGQGTLVTVSS
VL: EIVLTQSPDFQSVTPKEKVTITCRASQSIGSSLHWYQQKPDQSPKLLIKYASQSFSGVPSRFSGSGSGTDFTLTINSLEAEDAAAYYCHQSSSLPFTFGPGTKVDIKR
IC50, inhibition of ICAM-1 expression upon IL-1beta stimulation of A549 cells (human IL-1beta [11]): 310 pM | EC50, reduction of IL-6 expression upon IL-1beta stimulation of A549 cells (human IL-1beta [12]): 0.0864 µg/mL | EC50, reduction of IL-6 expression upon IL-1beta stimulation of A549 cells (human IL-1beta [13]): 120 pM | IC50 (human IL-1beta [14]): 1600 pM | Kd (human IL-1beta [9]): 20 pM | koff (human IL-1beta [9]): 5.2e-05 s⁻¹ | kon (human IL-1beta [9]): 2.78e+06 M⁻¹ s⁻¹ | Kd (cynomolgus IL-1beta [10]): 13200 pM | koff (cynomolgus IL-1beta [10]): 0.0284 s⁻¹ | kon (cynomolgus IL-1beta [10]): 2.15e+06 M⁻¹ s⁻¹ | IC50, inhibition of ICAM-1 expression upon IL-1beta stimulation of HUVEC cells (human IL-1beta [15]): 9020 pM | IC50, inhibition of proliferation of D10 cells (human IL-1beta [16]): 1990 pM

B6: antibody 0144 (bispecific antibody, human IgG1, kappa, L234A L235A)
chain 1: SYVLTQPPSVSVAPGQTARITCGGNNIGSKSVHWYQQKPGQAPVLVVYDTSDRPSGIPERFSGSNSGNTATLTISRVEAGDEADYYCQVWDSSSDHWVFGGGTKLTVLSSASTKGPSVFPLAPSSKSTSGGTAALGCLVKDYFPEPVTVSWNSGALTSGVHTFPAVLQSSGLYSLSSVVTVPSSSLGTQTYICNVNHKPSNTKVDKKVEPKSCDKTHTCPPCPAPEAAGGPSVFLFPPKPKDTLMASRTPEVTCVVVDVSHEDPEVKFNWYVDGVEVHNAKTKPREEQYNSTYRVVSVLTVLAQDWLNGKEYKCKVSNKALGAPIEKTISKAKGQPREPQVYTLPPCRDELTKNQVSLWCLVKGFYPSDIAVEWESNGQPENNYKTTPPVLDSDGSFFLYSKLTVDKSRWQQGNVFSCSVMHEALHNAYTQKSLSLSPGK
chain 2: not shown
chain 3: not shown
chain 4: not shown
notes: also called anti-PDGF-B/ANG2 antibody; clone 0144-0004
ANG2 specific pTie2-ELISA, activity against the anti-ANG2/VEGF antibody reported in WO 2014/09465 (ANG2): 6 fold | Kd [17]: 17000 pM | koff [17]: 0.00155 s⁻¹ | kon [17]: 90600 M⁻¹ s⁻¹ | t½ [17]: 7.43 min | Kd (human PDGF-BB [6]): 3000 pM | koff (human PDGF-BB [6]): 0.000215 s⁻¹ | kon (human PDGF-BB [6]): 83100 M⁻¹ s⁻¹ | t½ (human PDGF-BB [6]): 53 | IC50 Migration-Inhibition human pericytes (human PDGF-BB [4]): 60 pM | IC50 Phospho-Inhibition human pericytes (human PDGF-BB [4]): 55 pM | IC50 Proliferation 3T3 (human PDGF-BB [5]): 20 pM | IC50 Proliferation human pericytes (human PDGF-BB [5]): 30 pM
